For series [1], the target named is subtilisin BPN' mutant S149 (Bacillus amyloliquefaciens) (UniProt P00782). The experiment in a line: transient state kinetics with fluorogenic substrate.
The target is the same in series [2]. The experiment in a line: transient state kinetics with fluorogenic substrates.
Series [3] has as its target fusion of the pR8 prodomain onto the N-terminus of the 56 amino acid B domain (GB) of streptococcal Protein G, P06654.

The results in this text go back to patent US20060134740A1.

The star is where a group is joined. AMC = Cc1cc(=O)oc2cc(N*)ccc12

For {code s}-DVRAF-{AMC} [fluorogenic substrate sDVRAF-AMC], the Ks in series [1] came out at 5 µM.

In turn, {code s}-DFRAM-{AMC} [fluorogenic pentapeptide substrate sDFRAM-AMC] showed a fold preference over sDVRAF-AMC in series [2] of 5 fold. For the same molecule, the Ks in series [1] was 1 µM.

B1: wild type subtilisin BPN' (protein)
chain: AQSVPYGVSQIKAPALHSQGYTGSNVKVAVIDSGIDSSHPDLKVAGGASMVPSETNPFQDNNSHGTHVAGTVAALNNSIGVLGVAPSASLYAVKVLGADGSGQYSWIINGIEWAIANNMDVINMSLGGPSGSAALKAAVDKAVASGVVVVAAAGNEGTSGSSSTVGYPGKYPSVIAVGAVDSSNQRASFSSVGPELDVMAPGVSIQSTLPGNKYGAYNGTSMASPHVAGAAALILSKHPNWTNTQVRSSLENTTTKLGDSFYYGKGLINVQAAAQ
B1: in series [3], the “cleavage of the fusion protein” value was “The fusion protein was rapidly and specifically cleaved to release GB from pR8”.
